Substrate in series [1]: COc1cc(C[C@@H](CO)[C@H](CO)Cc2ccc(O)c(OC)c2)ccc1O
The series can be described thus: UPLC-MS glucosylation assay, SDG formation, Lineweaver-Burk. It counts as biochemical, Linum usitatissimum. The conditions noted are these: SDG production (sequential glucosylation via SMG), 1.67 mM UDP-glucose fixed, pH 8.0, 30°C, 1 mM NaCl, 80 μg protein.

Substrate in series [2]: O=c1ccn([C@@H]2O[C@H](CO[P@@](=O)(O)O[P@@](=O)(O)O[C@H]3O[C@H](CO)[C@@H](O)[C@H](O)[C@H]3O)[C@@H](O)[C@H]2O)c(=O)[nH]1
The series is described as above. It counts as biochemical, Linum usitatissimum. As to conditions: SDG production, 280 μM SECO fixed, pH 8.0, 30°C, 1 mM NaCl, 80 μg protein.

B1: UGT74S1 (Linum usitatissimum) (protein)
chain: MAGDEREKAHCLVVPAAAQGHFTPLLQFSKRLIPKRIRVTLALTRFIHSTMTVTAQSGIHIDTISDGFDHSGLILQDPEHYSQTFRRVGSETLTDLIRKQSESRHPVHCIIYDASMPWFLDVAKRFGIVGAAFLTQSCAVNAIYYHLREGTIKRPVVSDPAAGTLVIDGLPPLEVSDLPSFIWDDLHTEFLAAHLRQFSNDGADWVFCNTVYQLELEAVDWLTKQWLINFRTIGPTIPSFYLDKQIPDDKDYDISIFNPQNQTCMNWLQSKPDGSVVYVSFGSLARLSPQQTEELYFGLKNSNHYFLWVVRESEVAKLPKEEYLSGEKGLVVSWCSQLQVLASGKVGCFVTHCGWNSTLEALSLGVPMVAMPECGDQLTNAKFIKDVWKTGVRAEADDGKGIMWGMIKREVIERCIREVMEGEETRRNADKWGKIIKEAVVEGGSSDKNTEDFATSLINFAETFQFSC
As usually defined, the Km is the substrate concentration at which the rate is half of its maximum. In general, kcat refers to the maximal rate divided by the concentration of active sites. As for B1, in series [1], the Michaelis-Menten constant (Km) came out at 79 µM and the turnover number (kcat) was found to be 0.89 s⁻¹. Further, the Km in series [2] worked out at 1188 µM.

These data come from article PMC3986616, “Identification and functional characterization of a flax UDP-glycosyltransferase glucosylating secoisolariciresinol (SECO) into secoisolariciresinol monoglucoside (SMG) and diglucoside (SDG)” (BMC Plant Biology, 2014).
